Source: article PMC2685083

What was measured:
[1] = target: myc-tagged β^+/his6-tagged β^C heterodimer (E. coli) (UniProt P0A988); test: SPR
[2] = target: β^+–δ1 complex (his6-tagged β^+ homodimer with one tightly bound δ) (E. coli) (UniProt P0A988); test: SPR

Kd [1] [nM]	koff [1] [s⁻¹]	kon [1] [M⁻¹ s⁻¹]	off rate relative to that from β^+ [1] [fold]	stoichiometry N [1]	Kd [2] [nM]	Substance
172	0.0125	72700				α catalytic subunit of Pol III (from UniProt P10443 1-1160) (enzyme)
			2			DnaX clamp loader complex, γ3δδ′χψ form (from UniProt P06710-2;P28630;P28631;P28905;P28632)
15.6				1	160	δ subunit of the DnaX clamp loader complex (from UniProt P28630 1-343) (natural protein)
